Assay results taken from the supplement of paper PMC9112550, “Optimization of the antimicrobial peptide Bac7 by deep mutational scanning” (BMC Biology, 2022).

system: Escherichia coli TOP10; experiment: shrunken log2 fold change of peptide-encoding DNA abundance (4.5 h post-induction vs induction); higher = less antimicrobial activity (less host growth inhibition); details: time post-induction: 4.5 h; library: site-saturation at positions 5, 18, 19, 20
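Further: peptides expressed intracellularly from a pBAD plasmid library in pooled LB shake-flask culture, induced with 0.3% L-arabinose, DNA abundance read by NGS, three biological replicates, DESeq2 with apeglm shrinkage.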

RRIRMRPPRLPRPRPRPMTDPRP and RRIRDRPPRLPRPRPRPQRLPRP are within 0.2 log units of each other in “shrunken log2 fold change” value: 0.0744 for the first, 0.116 for the second.

RRIRQRPPRLPRPRPRPTIPPRP and RRIRDRPPRLPRPRPRPDLWPRP are within 0.2 log units of each other in “shrunken log2 fold change” value: -0.205 for the first, -0.0295 for the second.

Going from RRIRWRPPRLPRPRPRPVCLPRP to RRIRWRPPRLPRPRPRPCHEPRP, the “shrunken log2 fold change” value falls from 0.311 to -0.00847.

RRIRMRPPRLPRPRPRPTNLPRP and RRIRERPPRLPRPRPRPWFIPRP are within 0.2 log units of each other in “shrunken log2 fold change” value: -0.0631 for the first, -0.00655 for the second.

Compared with RRIRWRPPRLPRPRPRPETEPRP, RRIRPRPPRLPRPRPRPAKFPRP is lower in “shrunken log2 fold change” value: 0.411 for the first, 0.0407 for the second.

Going from RRIRMRPPRLPRPRPRPVELPRP to RRIRIRPPRLPRPRPRPEQVPRP, the “shrunken log2 fold change” value rises from -0.281 to 0.0205.

Compared with RRIRSRPPRLPRPRPRPQTQPRP, RRIRCRPPRLPRPRPRPFAEPRP is lower in “shrunken log2 fold change” value: 0.198 for the first, -0.0347 for the second.

RRIRNRPPRLPRPRPRPFHAPRP and RRIRVRPPRLPRPRPRPEAMPRP are within 0.2 log units of each other in “shrunken log2 fold change” value: -0.0245 for the first, -0.0277 for the second.

Going from RRIRERPPRLPRPRPRPYWAPRP to RRIRERPPRLPRPRPRPRAMPRP, the “shrunken log2 fold change” value rises from -0.888 to 0.0549.

Compared with RRIRRRPPRLPRPRPRPPAMPRP, RRIRSRPPRLPRPRPRPRHNPRP is lower in “shrunken log2 fold change” value: 0.814 for the first, -0.324 for the second.

Compared with RRIRVRPPRLPRPRPRPSKMPRP, RRIRDRPPRLPRPRPRPRLSPRP is higher in “shrunken log2 fold change” value: -0.243 for the first, 0.286 for the second.

Going from RRIRARPPRLPRPRPRPVIFPRP to RRIRARPPRLPRPRPRPFQDPRP, the “shrunken log2 fold change” value falls from 0.0535 to -0.297.

RRIRGRPPRLPRPRPRPIDSPRP and RRIRRRPPRLPRPRPRPFLPPRP are within 0.2 log units of each other in “shrunken log2 fold change” value: 0.00395 for the first, 0.111 for the second.

Going from RRIRKRPPRLPRPRPRPCTAPRP to RRIRLRPPRLPRPRPRPWFTPRP, the “shrunken log2 fold change” value falls from 0.383 to -0.509.

Going from RRIRHRPPRLPRPRPRPWAMPRP to RRIRERPPRLPRPRPRPYPAPRP, the “shrunken log2 fold change” value falls from -0.00884 to -0.544.

Going from RRIRCRPPRLPRPRPRPEPNPRP to RRIRYRPPRLPRPRPRPQADPRP, the “shrunken log2 fold change” value falls from 0.265 to -0.323.

RRIRYRPPRLPRPRPRPDIRPRP and RRIRSRPPRLPRPRPRPMHPPRP are within 0.2 log units of each other in “shrunken log2 fold change” value: -0.00867 for the first, -0.0546 for the second.

First: RRIRARPPRLPRPRPRPPTCPRP
Second: RRIRTRPPRLPRPRPRPSVRPRP
The “shrunken log2 fold change” value of the first is higher: 0.559 for the first, -0.155 for the second.

RRIRWRPPRLPRPRPRPTDFPRP and RRIRARPPRLPRPRPRPHQAPRP are within 0.2 log units of each other in “shrunken log2 fold change” value: -0.149 for the first, -0.0279 for the second.

RRIRDRPPRLPRPRPRPQWFPRP and RRIRIRPPRLPRPRPRPEAVPRP are within 0.2 log units of each other in “shrunken log2 fold change” value: 0.0117 for the first, 0.0843 for the second.

First: RRIRFRPPRLPRPRPRPELEPRP
Second: RRIRWRPPRLPRPRPRPSSMPRP
The “shrunken log2 fold change” value of the first is higher: 0.537 for the first, -0.411 for the second.

Compared with RRIRERPPRLPRPRPRPPHAPRP, RRIRCRPPRLPRPRPRPSRWPRP is higher in “shrunken log2 fold change” value: 0.229 for the first, 0.599 for the second.

First: RRIRGRPPRLPRPRPRPLDRPRP
Second: RRIRDRPPRLPRPRPRPVIDPRP
The “shrunken log2 fold change” value of the first is higher: 0.732 for the first, 0.35 for the second.

RRIRNRPPRLPRPRPRPAAWPRP and RRIRPRPPRLPRPRPRPCMTPRP are within 0.2 log units of each other in “shrunken log2 fold change” value: 0.0193 for the first, -0.106 for the second.

Compared with RRIRERPPRLPRPRPRPIAAPRP, RRIRTRPPRLPRPRPRPTSQPRP is lower in “shrunken log2 fold change” value: 0.466 for the first, -0.00402 for the second.

Compared with RRIRMRPPRLPRPRPRPEIVPRP, RRIRGRPPRLPRPRPRPPQNPRP is higher in “shrunken log2 fold change” value: 0.574 for the first, 1.01 for the second.

RRIRVRPPRLPRPRPRPDPAPRP and RRIRPRPPRLPRPRPRPVNAPRP are within 0.2 log units of each other in “shrunken log2 fold change” value: 0.142 for the first, 0.138 for the second.

Going from RRIRQRPPRLPRPRPRPKTRPRP to RRIRDRPPRLPRPRPRPVVIPRP, the “shrunken log2 fold change” value rises from 0.247 to 2.82.

RRIRDRPPRLPRPRPRPAWTPRP and RRIRNRPPRLPRPRPRPQHAPRP are within 0.2 log units of each other in “shrunken log2 fold change” value: -0.0791 for the first, -0.0717 for the second.

RRIRKRPPRLPRPRPRPDGKPRP and RRIRNRPPRLPRPRPRPLRCPRP are within 0.2 log units of each other in “shrunken log2 fold change” value: 0.0268 for the first, 0.0876 for the second.

Compared with RRIRYRPPRLPRPRPRPFFQPRP, RRIRVRPPRLPRPRPRPFMYPRP is lower in “shrunken log2 fold change” value: -0.428 for the first, -0.642 for the second.

Compared with RRIRRRPPRLPRPRPRPLRCPRP, RRIRYRPPRLPRPRPRPHKAPRP is lower in “shrunken log2 fold change” value: 0.714 for the first, -0.0167 for the second.

RRIRFRPPRLPRPRPRPIVLPRP and RRIRMRPPRLPRPRPRPHFMPRP are within 0.2 log units of each other in “shrunken log2 fold change” value: -0.196 for the first, -0.127 for the second.

Going from RRIRGRPPRLPRPRPRPVCLPRP to RRIRYRPPRLPRPRPRPAFDPRP, the “shrunken log2 fold change” value falls from 1.1 to 0.105.

RRIRVRPPRLPRPRPRPQQIPRP and RRIRVRPPRLPRPRPRPQVKPRP are within 0.2 log units of each other in “shrunken log2 fold change” value: -0.119 for the first, -0.016 for the second.

Going from RRIRMRPPRLPRPRPRPLQPPRP to RRIRERPPRLPRPRPRPVTKPRP, the “shrunken log2 fold change” value falls from 0.737 to 0.365.

Going from RRIRRRPPRLPRPRPRPTGHPRP to RRIRWRPPRLPRPRPRPSCLPRP, the “shrunken log2 fold change” value falls from 0.236 to -0.0337.

RRIRPRPPRLPRPRPRPQTNPRP and RRIRFRPPRLPRPRPRPNIRPRP are within 0.2 log units of each other in “shrunken log2 fold change” value: -0.0828 for the first, -0.184 for the second.

RRIRDRPPRLPRPRPRPAINPRP and RRIRSRPPRLPRPRPRPIFQPRP are within 0.2 log units of each other in “shrunken log2 fold change” value: -0.117 for the first, -0.0307 for the second.

First: RRIRVRPPRLPRPRPRPPLPPRP
Second: RRIRCRPPRLPRPRPRPKLWPRP
The “shrunken log2 fold change” value of the first is higher: 0.325 for the first, 0.121 for the second.

First: RRIRSRPPRLPRPRPRPPFAPRP
Second: RRIRKRPPRLPRPRPRPQSHPRP
The “shrunken log2 fold change” value of the first is higher: 1.88 for the first, 0.353 for the second.

RRIRFRPPRLPRPRPRPSIRPRP and RRIRIRPPRLPRPRPRPRKDPRP are within 0.2 log units of each other in “shrunken log2 fold change” value: -0.288 for the first, -0.387 for the second.

RRIRGRPPRLPRPRPRPTLIPRP and RRIRMRPPRLPRPRPRPVYPPRP are within 0.2 log units of each other in “shrunken log2 fold change” value: 0.337 for the first, 0.166 for the second.

Going from RRIRKRPPRLPRPRPRPIITPRP to RRIRTRPPRLPRPRPRPQYVPRP, the “shrunken log2 fold change” value falls from 0.0225 to -0.336.

Going from RRIRFRPPRLPRPRPRPPKKPRP to RRIRHRPPRLPRPRPRPYFEPRP, the “shrunken log2 fold change” value falls from 0.847 to -0.76.

Going from RRIRARPPRLPRPRPRPNCSPRP to RRIRQRPPRLPRPRPRPLAAPRP, the “shrunken log2 fold change” value rises from 0.179 to 0.395.

Going from RRIRSRPPRLPRPRPRPNLSPRP to RRIRNRPPRLPRPRPRPTFVPRP, the “shrunken log2 fold change” value rises from -0.425 to -0.185.

Compared with RRIRFRPPRLPRPRPRPKHNPRP, RRIRDRPPRLPRPRPRPDKRPRP is higher in “shrunken log2 fold change” value: -0.483 for the first, 0.00902 for the second.

First: RRIRMRPPRLPRPRPRPETGPRP
Second: RRIRHRPPRLPRPRPRPKNVPRP
The “shrunken log2 fold change” value of the first is higher: 0.321 for the first, -0.0354 for the second.

RRIRYRPPRLPRPRPRPPQMPRP and RRIRARPPRLPRPRPRPAWMPRP are within 0.2 log units of each other in “shrunken log2 fold change” value: 0.0297 for the first, -0.00906 for the second.

RRIRVRPPRLPRPRPRPGSDPRP and RRIRFRPPRLPRPRPRPAEMPRP are within 0.2 log units of each other in “shrunken log2 fold change” value: -0.00601 for the first, 0.00299 for the second.

Going from RRIRERPPRLPRPRPRPMGVPRP to RRIRWRPPRLPRPRPRPWMHPRP, the “shrunken log2 fold change” value falls from 0.22 to -0.0548.

RRIRRRPPRLPRPRPRPWNHPRP and RRIRYRPPRLPRPRPRPPFTPRP are within 0.2 log units of each other in “shrunken log2 fold change” value: -0.0953 for the first, -0.244 for the second.

Going from RRIRQRPPRLPRPRPRPVGQPRP to RRIRLRPPRLPRPRPRPTCMPRP, the “shrunken log2 fold change” value falls from 0.0327 to -0.228.

RRIRCRPPRLPRPRPRPGNPPRP and RRIRRRPPRLPRPRPRPCMGPRP are within 0.2 log units of each other in “shrunken log2 fold change” value: -0.132 for the first, -0.1 for the second.

Going from RRIRERPPRLPRPRPRPLMTPRP to RRIRSRPPRLPRPRPRPPQLPRP, the “shrunken log2 fold change” value rises from -0.295 to 0.209.

RRIRQRPPRLPRPRPRPRHQPRP and RRIRIRPPRLPRPRPRPQKKPRP are within 0.2 log units of each other in “shrunken log2 fold change” value: -0.00749 for the first, -0.0235 for the second.

Compared with RRIRLRPPRLPRPRPRPVIHPRP, RRIRARPPRLPRPRPRPGTVPRP is higher in “shrunken log2 fold change” value: -1.64 for the first, 0.336 for the second.

First: RRIRMRPPRLPRPRPRPIEAPRP
Second: RRIRIRPPRLPRPRPRPAFRPRP
The “shrunken log2 fold change” value of the first is lower: 0.111 for the first, 2.17 for the second.

Compared with RRIRVRPPRLPRPRPRPLLGPRP, RRIRGRPPRLPRPRPRPPNRPRP is higher in “shrunken log2 fold change” value: -0.131 for the first, 0.427 for the second.

First: RRIRWRPPRLPRPRPRPTWEPRP
Second: RRIRMRPPRLPRPRPRPMGVPRP
The “shrunken log2 fold change” value of the first is higher: 0.314 for the first, 0.06 for the second.

First: RRIRARPPRLPRPRPRPKCTPRP
Second: RRIRSRPPRLPRPRPRPLVRPRP
The “shrunken log2 fold change” value of the first is higher: 0.316 for the first, 0.0873 for the second.

In the case of RRIRKRPPRLPRPRPRPGQGPRP, the “shrunken log2 fold change” value is reported as 0.205.
